Several values for one entry are separate records, joined by “and”; a condition that tells them apart may be missing. Identical values can stand only once.

The target of test [1] is T1, Recombinant human CD38-his tag (human, UniProt P28907 43-300).
T1 construct: also called recombinant CD38 antigen; CD38 antigen; not shown: his tag
Nature of the test: SPR (Biacore T200), 1:1 binding model; antigen not named on the sheet, taken as recombinant human CD38-his from Example 9. A general note: Surface plasmon resonance follows binding to a sensor surface in real time, without labels.

For test [2], the target named is T1, Recombinant human CD38-his tag. Nature of the test: SPR (Biacore T200), 1:1 binding model; antigen not named on the sheet, taken as recombinant human CD38-his from Example 9; row printed 'BZ1 Pool2 PA', assigned to BZ1S through legends paragraph 161 and paragraph 163.
Description: Kinetic interactions between bispecific antibodies and CD38 antigen were measured at 25° C. using Biacore T200 surface plasmon resonance (GE Healthcare). Anti-human fragment crystallizable (Fc) antibody (Human Antibody Capture Kit) was immobilized on a Series S CM5 sensor chip to approximately 10000 RU using standard N-Hydroxysuccinimide/1-ethyl-3-(-3-dimethylaminopropyl) carbodiimide hydrochloride (NHS/EDC) coupling methodology. Antibodies (bispecific or mAb, approximately 2 μg/mL) were captured for 60 seconds at a flow rate 10 μL/min. Recombinant human CD38-his tag was serially diluted in running buffer (1×HBS-EP+). All measurements were conducted with a flow rate of 30 μL/min. Surfaces were regenerated with 3M MgCl₂ for 60 s. A 1:1 (Langmuir) binding model was used to fit the data.
Biacore binding kinetics of the CD38×CD3 bispecific antibodies towards each individual antigen as the first and sole binding event were obtained for the target combination: CD38/CD3. The bispecific antibody was immobilized onto a biosensor surface via amine coupled anti human Fc antibodies on a CM5 sensor chip (GE Healthcare) according to the manufacturer's recommendation. […] Some kinetics analysis of the parental mAb (anti-CD38) was performed with 200 seconds association phase and 300 seconds dissociation phase.

B1: BZ1 heterodimeric antibody (bispecific antibody, human IgG1, lambda, L234A L235A)
chain: QVQLVQSGAEVKKPGASVKVSCKASGYTFISYTMHWVRQAPGQGLEWIGYINPRSGYTHYNQKLKDRATLTADKSASTAYMELSSLRSEDTAVYYCARSAYYDYDGFAYWGQGTLVTVSSGGGGSGGGGSGGGGSGGGGSDIQMTQSPSSLSASVGDRVTITCSASSSVSYMNWYQQKPGKAPKRLIYDTSKLASGVPSRFSGSGSGTDFTLTISSLQPEDFATYYCQQWSSNPPTFGGGTKVEIKGGGGSDKTHTCPPCPAPEAAGGPSVFLFPPKPKDTLMISRTPEVTCVVVDVSHEDPEVKFNWYVDGVEVHNAKTKPREEQYNSTYRVVSVLTVLHQDWLNGKEYKCKVSNKALPAPIEKTISKAKGQPREPQVYTLPPSREEMTKNQVSLSCAVKGFYPSDIAVEWESNGQPENNYKTTPPVLDSDGSFFLVSKLTVDKSRWQQGNVFSCSVMHEALHNHYTQKSLSLSPGK
heavy: QVQLVESGGGLVKPGGSLRLSCAASGFTFSDDYMSWIRQAPGKGLEWVASVSNGRPTTYYADSVRGRFTISRDNAKNSLYLQMNSLRAEDTAVYYCAREGWSGEFTDWGQGTLVTVSSASTKGPSVFPLAPSSKSTSGGTAALGCLVKDYFPEPVTVSWNSGALTSGVHTFPAVLQSSGLYSLSSVVTVPSSSLGTQTYICNVNHKPSNTKVDKRVEPKSCDKTHTCPPCPAPEAAGGPSVFLFPPKPKDTLMISRTPEVTCVVVDVSHEDPEVKFNWYVDGVEVHNAKTKPREEQYNSTYRVVSVLTVLHQDWLNGKEYKCKVSNKALPAPIEKTISKAKGQPREPQVYTLPPSREEMTKNQVSLWCLVKGFYPSDIAVEWESNGQPENNYKTTPPVLDSDGSFFLYSKLTVDKSRWQQGNVFSCSVMHEALHNHYTQKSLSLSPGK
light: not shown
notes: Isotype IgG1/LALA, knob-in-hole; also called BZ1 bispecific antibody
On to B1, for which, in test [1], the Kd (commonly the concentration at which binding is half-saturated) is 1.08 nM and 0.96 nM; the off-rate constant (koff) (as a rule, the rate constant with which the complex falls apart) was 0.00213 s⁻¹ and 0.00205 s⁻¹; the kon (usually the second-order rate constant of association) is 1.97e+06 M⁻¹ s⁻¹.

B2: BZ1S (bispecific antibody, human IgG1, lambda, L234A L235A)
first polypeptide (anti-CD3 scFv-Fc fusion): QVQLVQSGAEVKKPGASVKVSCKASGYTFISYTMHWVRQAPGQGLEWIGYINPRSGYTHYNQKLKDRATLTADKSASTAYMELSSLRSEDTAVYYCARSAYYDYDGFAYWGQGTLVTVSSGGGGSGGGGSGGGGSGGGGSDIQMTQSPSSLSASVGDRVTITCSASSSVSYMNWYQQKPGKAPKRLIYDTSKLASGVPSRFSGSGSGTDFTLTISSLQPEDFATYYCQQWSSNPPTFGGGTKVEIKGGGGSDKTHTCPPCPAPEAAGGPSVFLFPPKPKDTLMISRTPEVTCVVVDVSHEDPEVKFNWYVDGVEVHNAKTKPREEQYNSTYRVVSVLTVLHQDWLNGKEYKCKVSNKALPAPIEKTISKAKGQPREPQVYTLPPSREEMTKNQVSLSCAVKGFYPSDIAVEWESNGQPENNYKTTPPVLDSDGSFFLVSKLTVDKSRWQQGNVFSCSVMHEALHNHYTQKSLSLSPGK
second polypeptide (anti-CD38 heavy chain): QVQLVESGGGLVKPGGSLRLSCAASGFTFSDDYMSWIRQAPGKGLEWVASVSSGRPTTYYADSVRGRFTISRDNAKNSLYLQMNSLRAEDTAVYYCAREGWSGEFTDWGQGTLVTVSSASTKGPSVFPLAPSSKSTSGGTAALGCLVKDYFPEPVTVSWNSGALTSGVHTFPAVLQSSGLYSLSSVVTVPSSSLGTQTYICNVNHKPSNTKVDKRVEPKSCDKTHTCPPCPAPEAAGGPSVFLFPPKPKDTLMISRTPEVTCVVVDVSHEDPEVKFNWYVDGVEVHNAKTKPREEQYNSTYRVVSVLTVLHQDWLNGKEYKCKVSNKALPAPIEKTISKAKGQPREPQVYTLPPSREEMTKNQVSLWCLVKGFYPSDIAVEWESNGQPENNYKTTPPVLDSDGSFFLYSKLTVDKSRWQQGNVFSCSVMHEALHNHYTQKSLSLSPGK
third polypeptide (anti-CD38 light chain): not shown
notes: also called BZ1S heterodimeric antibody; BZ1S bispecific antibody
With B2, in test [2], the Kd turned out to be 0.909 nM, the koff came to 0.00194 s⁻¹ and the kon turned out to be 2.14e+06 M⁻¹ s⁻¹.

The values are drawn from patent US20220363758A1 (SORRENTO THERAPEUTICS, published 2022).
